Data from paper PMC5892705.

Legend:
[1] = target: human oxytocin receptor (human) (UniProt P30559)
[2] = target: human oxytocin receptor (human) (UniProt P30559); remark: listed apart in the source
[3] = target: human vasopressin V1a receptor (human) (UniProt P37288)
human vasopressin V1a receptor (human), sequence (P37288 whole entry): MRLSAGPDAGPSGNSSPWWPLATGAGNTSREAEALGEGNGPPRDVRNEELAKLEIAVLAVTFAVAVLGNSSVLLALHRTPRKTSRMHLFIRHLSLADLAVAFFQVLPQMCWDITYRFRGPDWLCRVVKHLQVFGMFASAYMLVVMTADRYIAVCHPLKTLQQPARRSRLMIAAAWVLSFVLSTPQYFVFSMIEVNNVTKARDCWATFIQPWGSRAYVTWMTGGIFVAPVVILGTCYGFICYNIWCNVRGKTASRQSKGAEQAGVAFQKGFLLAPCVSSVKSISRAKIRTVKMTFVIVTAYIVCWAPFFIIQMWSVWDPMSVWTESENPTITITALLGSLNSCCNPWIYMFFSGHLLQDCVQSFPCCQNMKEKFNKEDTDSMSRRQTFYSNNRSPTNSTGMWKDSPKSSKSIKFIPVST

human oxytocin receptor (human), sequence (P30559 whole entry): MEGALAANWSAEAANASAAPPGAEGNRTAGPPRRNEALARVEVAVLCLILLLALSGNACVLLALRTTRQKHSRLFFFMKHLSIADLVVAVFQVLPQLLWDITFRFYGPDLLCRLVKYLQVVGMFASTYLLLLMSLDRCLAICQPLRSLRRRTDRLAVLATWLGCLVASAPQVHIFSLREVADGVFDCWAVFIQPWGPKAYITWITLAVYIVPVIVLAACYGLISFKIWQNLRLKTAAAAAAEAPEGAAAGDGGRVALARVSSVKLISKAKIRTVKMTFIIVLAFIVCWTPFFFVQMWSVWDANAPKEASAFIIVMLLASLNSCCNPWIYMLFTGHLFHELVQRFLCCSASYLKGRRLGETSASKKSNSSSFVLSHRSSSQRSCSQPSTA
Oxytocin, sequence (P01178 whole entry, looked up): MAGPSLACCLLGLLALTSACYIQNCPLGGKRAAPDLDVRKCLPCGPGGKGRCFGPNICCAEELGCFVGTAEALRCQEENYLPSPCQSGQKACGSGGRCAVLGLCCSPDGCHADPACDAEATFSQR

FLIPR Ca2+ mobilization, Emax [1] | tissue bath, contraction amplitude of strips of pregnant human myometrium, EC50 [2] | maximal intracellular Ca2+ in human cardiomyocytes (FLIPR), EC50 [3] | Substance
59% | – | – | d[Se-Se]-OT-OH (peptide)
– | 1.14 nM | 174 nM | Oxytocin (from UniProt P01178 20-28) (peptide)
